“Also recorded” adds a separate entry of the source.
Tests used:
p34^cdc2-cyclin B1 = molecular target: T1, p34^cdc2-cyclin B1 (Homo sapiens, UniProt P06493); assay: In vitro kinase assay with p34cdc2-cyclin B1; format: biochemical; settings: recombinant protein as substrate, 32P-ATP, 30 min at 30° C., autoradiography
T1 construct: host or cells: baculovirus expression system
Protocol: (§1) FIG. 1B. In vitro kinase assay. Wild type (WT) survivin, survivin(T34A) (T34A), or control (H1) were incubated with baculovirus-expressed p34^cdc2-cyclin B1 or cdk2-cyclin E in kinase buffer plus 10 μCi γ-^32P-ATP for 30 min at 30° C. Samples were separated by SDS gel electrophoresis and radioactive bands were visualized by autoradiography. Equal protein loading was confirmed by Coomassie blue staining of the gel.
(§2) Transfection experiments. For transient transfection, HeLa cells in C-6 tissue culture plates (Costar, Cambridge, Mass.) at ˜60-70% confluency, were incubated in 1 ml of serum-free OptiMEM medium (Life Technologies, Gaithersburg, Md.) for 20 min, and transfected with 2.5 μg of the various plasmid cDNAs plus 9 μl Lipofectamine (Life Technologies). After a 5 h incubation at 37° C., the mixture was aspirated and substituted with complete growth medium for 48-72 h. To generate stable YUSAC-2 transfectants, a survivin(T34A) cDNA was inserted into the HindIII-SpeI sites of the pTet-splice vector (Dr. D. Schatz, Yale University School of Medicine), downstream of the regulatory sequences of the Tet-resistance operon (TetO). […] Gated GFP-expressing cells were analyzed for DNA content by flow cytometry on a FACSort (Becton Dickinson, San Jose, Calif.) using a Cell Quest software. […]

Cdk2-cyclin E = molecular target: T2, Cdk2-cyclin E (Homo sapiens, UniProt P24941); assay: In vitro kinase assay with Cdk2-cyclin E; format: biochemical; settings: recombinant protein as substrate, control experiment, autoradiography
T2 construct: host or cells: baculovirus expression system
Protocol: as §1, §2

F5.C4 tumors = assay: Effect on established F5.C4 tumors in mice; format: in vivo
Protocol: Error bars indicate standard deviation. Also shown are 5 representative growth curves from 15 animals in which tet was withheld (day 0) upon tumor formation (no symbols).
Next, the effect of survivin Thr^34→Ala on established tumors was assessed. Fifteen mice were injected with F5.C4 cells and tet was provided to permit tumor formation. Once tumors became apparent (20-50 mm^3), tet was withheld from the drinking water and tumors were monitored for 5 weeks. […] Rather, a spectrum of growth curves with some tumors failing to grow at all after tet was withdrawn was observed (FIG. 10A). […] In the two small F5.C4 tumors that formed in the absence of tet (Table I), a similar pattern of apoptotic cell death was seen (not shown).

T1 sequence (P06493 whole entry): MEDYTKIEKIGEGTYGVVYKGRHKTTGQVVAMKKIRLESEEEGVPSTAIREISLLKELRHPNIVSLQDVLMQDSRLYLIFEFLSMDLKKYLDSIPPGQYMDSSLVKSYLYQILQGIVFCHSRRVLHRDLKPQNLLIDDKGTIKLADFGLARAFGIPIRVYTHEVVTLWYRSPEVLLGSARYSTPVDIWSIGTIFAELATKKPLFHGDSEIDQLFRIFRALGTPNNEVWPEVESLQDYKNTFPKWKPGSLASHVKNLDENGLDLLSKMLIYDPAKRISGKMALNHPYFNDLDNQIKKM
T1 sequence (P14635 whole entry partner): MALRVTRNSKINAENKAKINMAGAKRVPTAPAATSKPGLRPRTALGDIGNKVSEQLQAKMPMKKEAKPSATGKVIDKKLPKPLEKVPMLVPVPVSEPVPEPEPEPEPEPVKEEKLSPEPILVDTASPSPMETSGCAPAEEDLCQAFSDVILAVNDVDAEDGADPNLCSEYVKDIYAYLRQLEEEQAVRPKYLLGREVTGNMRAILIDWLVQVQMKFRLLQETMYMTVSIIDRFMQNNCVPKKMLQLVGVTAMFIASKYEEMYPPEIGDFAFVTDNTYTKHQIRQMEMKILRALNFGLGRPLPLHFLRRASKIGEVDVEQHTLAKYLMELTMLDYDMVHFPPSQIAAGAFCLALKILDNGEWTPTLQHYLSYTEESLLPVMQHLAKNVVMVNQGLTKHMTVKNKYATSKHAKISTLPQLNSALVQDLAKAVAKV

survivin(T34A): dominant-negative, non-phosphorylatable survivin mutant with Thr34→Ala substitution, expressed from transfected cDNA (also HA- or GFP-tagged)
phosphorylation by p34^cdc2-cyclin B1 (p34^cdc2-cyclin B1): abolished phosphorylation | phosphorylation by Cdk2-cyclin E (Cdk2-cyclin E): did not phosphorylate | growth of established tumors after tet withdrawal (F5.C4 tumors; F5.C4 tumors 20-50 mm^3 at withdrawal, monitored for 5 weeks): None of the tumors grew at a rate comparable to F5.C4 tumors in animals maintained on tet | histologic analysis of tumors after transgene induction (F5.C4 tumors; F5.C4 tumors, tet withdrawn, listed as survivin Thr^34→Ala): massive areas of necrosis and prominent cellular apoptosis by TUNEL; also recorded: lack of normal mitotic figures and the presence of aberrant mitoses
